Test results: article PMC3418249, “Binding of Translationally Controlled Tumour Protein to the N-Terminal Domain of HDM2 Is Inhibited by Nutlin-3” (PLoS ONE, 2012)
No end group written: not given here. FAM = carboxyfluorescein

Key:
Conditions in all cases: both partners purified
[1] = biological target: T1, recombinant full-length TCTP, purified (human (cDNA from AGS cells), UniProt P13693 1-172); experiment: pull-down; cobalt beads coated with 20 µM his-tagged HDM2 (17–125), 4 h at 4°C with 7 µM TCTP protein, with or without 200 µM Nutlin-3; Western blot
T1 construct: TCTP, called recombinant full-length TCTP; also called recombinant TCTP; TCTP protein; source: expressed as GST fusion (pGEX-6P-1), purified (GSTrap, on-column cleavage with precission protease, monoQ)
T1 sequence (looked up): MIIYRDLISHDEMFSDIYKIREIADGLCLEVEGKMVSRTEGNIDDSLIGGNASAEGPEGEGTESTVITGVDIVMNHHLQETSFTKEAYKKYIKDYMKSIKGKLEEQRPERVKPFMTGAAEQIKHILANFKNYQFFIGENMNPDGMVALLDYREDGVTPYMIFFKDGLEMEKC

purified HDM2 (1–125) [2] = biological target: T2, purified HDM2 (1–125) (human, UniProt Q00987 1-125); experiment: pull-down; biotinylated peptides (10 µg) on streptavidin Dynabeads M-280, incubated with purified HDM2 (1–125) (15 µM) or TCTP (15 or 30 µM) 4 h at 4°C; Western blot; repeated with DMSO or Nutlin-3 (2/20/200 µM)
T2 construct: source: expressed as GST fusion (pGEX-6P-1), purified (GSTrap, on-column cleavage with precission protease, monoS)

[3] = biological target: T1, recombinant full-length TCTP, purified; experiment: as above
purified HDM2 (1–125) [4] = biological target: T2, purified HDM2 (1–125); experiment: fluorescence polarisation; competition: 50 nM FAM-12-1 peptide, 250 nM HDM2 (1–125), competitors TH2/TH3 (50/200/600 µM), control peptide (600 µM), Nutlin-3 (200 µM), p53 peptide; PBS-0.005% Tween-20

B1: recombinant his-tagged HDM2 (residues 17–125) (domain or fragment, human, UniProt Q00987 17-125, looked up)
chain: SQIPASEQETLVRPKPLLLKLLKSVGAQKDTYTMKEVLFYLGQYIMTKRLYDEKQQHIVYCSNDLLGDLFGVPSFSVKEHRKIYTMIYRNLVVVNQQESSDSGTSVSEN
notes: also called recombinant HDM2 N-terminal domain; source: recombinant
B1: binds [1].

B2: TH2 peptide (TCTP residues 81–110) (peptide)
peptide: GGGSTSFTKEAYKKYIKDYMKSIKGKLEEQRPER
modifications: also: biotin, position not given here
notes: spacer at the N-terminus; TCTP residues 81-110; source: synthetic peptide (Mimotopes)
B2: binds (purified HDM2 (1–125) [2]).

B3: TH3 peptide (TCTP residues 107–133) (peptide)
peptide: GGGSRPERVKPFMTGAAEQIKHILANFKNYQ
modifications: also: biotin, position not given here
notes: spacer at the N-terminus; source: synthetic peptide (Mimotopes)
B3: binds (purified HDM2 (1–125) [2]).

B4: HDM2 α2 helix peptide (residues 43–65) (peptide)
peptide: GGGSAQKDTYTMKEVLFYLGQYIMTKR
modifications: biotin (position not given)
notes: spacer at the N-terminus; HDM2 α2 helix, residues 43-65; source: synthetic peptide (Mimotopes)
B4: binds [3].

B5: carboxyfluorescein (FAM) labeled 12-1 peptide (peptide)
peptide: {FAM}-RFMDYWEGL-NH2
notes: also called FAM-labeled p53 peptide (12.1); fluorescently labelled p53 peptide
B5: binds (purified HDM2 (1–125) [4]).
